The test addresses T1, angiotensin-converting enzyme (ACE) from rabbit lung (rabbit) (UniProt P12822).
T1 sequence: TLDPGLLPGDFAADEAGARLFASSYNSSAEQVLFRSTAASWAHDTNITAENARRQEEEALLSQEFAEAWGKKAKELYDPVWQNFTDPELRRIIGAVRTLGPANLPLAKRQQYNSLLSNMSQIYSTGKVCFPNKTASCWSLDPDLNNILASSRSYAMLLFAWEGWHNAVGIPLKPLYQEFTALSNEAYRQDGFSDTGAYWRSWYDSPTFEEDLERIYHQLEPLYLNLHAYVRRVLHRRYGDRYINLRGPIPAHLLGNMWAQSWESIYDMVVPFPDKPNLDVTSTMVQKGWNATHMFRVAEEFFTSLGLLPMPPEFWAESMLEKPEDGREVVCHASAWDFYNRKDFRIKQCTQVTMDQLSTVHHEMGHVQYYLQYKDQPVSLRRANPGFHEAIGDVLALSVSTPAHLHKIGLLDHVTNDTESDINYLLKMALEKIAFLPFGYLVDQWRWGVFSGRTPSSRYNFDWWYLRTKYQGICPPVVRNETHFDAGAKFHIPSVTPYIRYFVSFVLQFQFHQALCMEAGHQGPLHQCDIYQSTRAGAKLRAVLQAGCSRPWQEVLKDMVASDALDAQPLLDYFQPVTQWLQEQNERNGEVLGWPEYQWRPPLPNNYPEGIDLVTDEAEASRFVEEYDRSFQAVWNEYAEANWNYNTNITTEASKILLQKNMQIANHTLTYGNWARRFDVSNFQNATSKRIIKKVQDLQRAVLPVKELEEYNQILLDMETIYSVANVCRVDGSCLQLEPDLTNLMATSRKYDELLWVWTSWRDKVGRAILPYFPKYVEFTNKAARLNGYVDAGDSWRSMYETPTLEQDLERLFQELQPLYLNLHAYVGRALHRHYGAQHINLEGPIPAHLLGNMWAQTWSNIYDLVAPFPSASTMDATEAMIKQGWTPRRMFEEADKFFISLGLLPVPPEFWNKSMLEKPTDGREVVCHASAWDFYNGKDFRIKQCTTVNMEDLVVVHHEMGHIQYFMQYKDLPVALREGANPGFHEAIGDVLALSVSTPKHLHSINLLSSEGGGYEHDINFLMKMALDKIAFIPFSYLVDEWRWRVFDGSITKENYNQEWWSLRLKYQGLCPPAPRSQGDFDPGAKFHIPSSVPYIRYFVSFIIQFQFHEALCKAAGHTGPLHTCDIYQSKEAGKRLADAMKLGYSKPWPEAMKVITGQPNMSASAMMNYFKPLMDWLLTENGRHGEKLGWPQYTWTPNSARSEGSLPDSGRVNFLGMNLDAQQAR

Here are results for five molecules from PMC9818667.

B1: VALSSLRP (peptide)
peptide: VALSSLRP
Take B1: the ACE inhibitory activity (substrate HHL, hippuric acid by HPLC), peptide at 1 mg/mL worked out at 91.7% and the IC50 of ACE inhibitory activity (substrate HHL, hippuric acid by HPLC) turned out to be 39 µg/mL.

B2: … (peptide)
peptide: TTPSYVAFTDTER
With B2, the ACE inhibitory activity (substrate HHL, hippuric acid by HPLC), peptide at 1 mg/mL was 26.7%.

B3: … (peptide)
peptide: STGEAFVQFASQEIAEK
On to B3, for which the ACE inhibitory activity (substrate HHL, hippuric acid by HPLC), peptide at 1 mg/mL came to 1.57%.

B4: … (peptide)
peptide: NPDDITNEEYGEFYK
B4: the ACE inhibitory activity (substrate HHL, hippuric acid by HPLC), peptide at 1 mg/mL turned out to be 2.81%.

B5: … (peptide)
peptide: QFQPGFSSS
Regarding B5, the ACE inhibitory activity (substrate HHL, hippuric acid by HPLC), peptide at 1 mg/mL turned out to be 40.9%.
